The text below walks through data of patent US20230127087.

The data set deals with Glypican-3 (GPC3) (UniProt P51654). The experiment in a line: filter. The conditions noted are these: n = BzdU (benzyl-modified dU); unit not given; Bmax 0.79; SB18T0.05, 37 C; 32P-labelled aptamer, protein titrated from 100 nM.
Chain of Glypican-3 (GPC3) (P51654 25-554): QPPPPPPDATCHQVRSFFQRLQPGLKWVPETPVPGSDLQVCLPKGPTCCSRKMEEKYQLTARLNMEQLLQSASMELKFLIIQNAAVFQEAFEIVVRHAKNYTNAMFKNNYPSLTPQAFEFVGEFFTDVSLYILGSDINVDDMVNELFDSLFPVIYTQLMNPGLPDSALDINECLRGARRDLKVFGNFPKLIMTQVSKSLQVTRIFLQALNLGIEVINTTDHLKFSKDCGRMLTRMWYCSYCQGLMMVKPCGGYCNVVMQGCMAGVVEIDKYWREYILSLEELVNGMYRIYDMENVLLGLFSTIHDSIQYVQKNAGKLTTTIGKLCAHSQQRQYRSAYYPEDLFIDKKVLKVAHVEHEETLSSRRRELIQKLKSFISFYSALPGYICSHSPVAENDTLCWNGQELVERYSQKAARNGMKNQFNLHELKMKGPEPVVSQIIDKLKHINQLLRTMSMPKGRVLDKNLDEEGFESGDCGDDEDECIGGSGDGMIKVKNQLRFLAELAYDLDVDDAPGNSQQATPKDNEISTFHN

With “GGGAAGTGAATGCGTTGAATTATGTCCCTTCAGTCATCAC [2428-12-10 (12-10)]”, the Kd amounted to 1.5.
